Results taken from paper PMC8217507 (Scientific Reports, 2021).

B1: HuMAb 3E1 (antibody, V domains shown)
VH: EVQLLESGGGLVQPGGSLRLSCAASGFTFSRFAMTWVRQAPGKGLEWVSAISGSGGSTFYADSVKGRFTISRDNSKNTLYLQMNSLRAEDTAVYYCVSLGDAWLLYWTPWGQGSLVTVSS
VL: DVVMTQSPLSLPVTLGQPASISCRSSQSLVHGDGNTYLNWFQQRPGQSPRRLIYNVSNRDPGVPDRFSGSGSGTDFTLKISWVEAEDVGVYYCMQATHLPPTFGGGTKVEI
B2: HuMAb 1E5 (antibody, V domains shown)
VH: QVQLVESGGGVVQPGKSLRVSCAASGFIFSSYGMHWVRQAPGKGLEWVAVISYDGRYKFYADSVKGRFTISRDDSRSTLYLQMNSLRSDDTAVYYCARGRPYIGGDYEYDYFYGMDVWGQGTTVIVSS
VL: IVMTQTPLSSPVTLGQPASISCRSSQSLVHSDGNTYLNWLQQRPGQPPRLLIYNISNRFSGVPDRFSGSGAGTDFTLKINRVEAEDVGVYYCMQATHFPYSFGQGTKLEIK
B3: HuMAb 1C3 (antibody, V domains shown)
VH: EVQLVESGGGLVQPGGSLRLSCAASGFTFSDHYIDWVRQAPGKGLEWVGRTSNRANSYTSEYAASVKGRFTISRDDSKNSVYLQMNSLKTEDTAVYFCARDSGWYDFWGQGTLVTVSS
VL: ALTQPASVSGSPGQSITISCTGPSRDLGANNYVSWYQQHPGKAPKLLIYDINNRPSGVPDRFSGSRSGNTASLTISGLQADDEADYYCSSYTRSRTRVFGGGTKLTVL
B4: HuMAb 3G9 (antibody, V domains shown)
VH: EVQLLDSGGGLVQPGGSLRLSCAASGFTFNDYAMTWVRQAPGKGLEWVSTISGSGDGTYYQESLKGRFTISRDNSKNTLYLLMSSLRVDDTAVYYCAKLFGVGDSDGYWGQGTLVTVSS
VL: QAVVTQEPSLTVSPGGTVTLTCGSSTGAVTSDHYFYWFQQKPGQAPRTLIYQTTNKHPWTPARFSGSLLGGKAALTLSGAQPEDEAEYYCLLSYGGGRPVFGGGTKLTVL
notes: also called 3G9-original; 3G9-Original

What follows are binders tested against T1, DENV2 (strain 16681) prM-E, wild type (Dengue virus type 2, strain 16681, UniProt P29990) (assay: flow cytometry on cells).
T1 construct: also called wild-type prM-E; DENV-2 prM-E; source: HEK-293T, transfected, in fixed cells

Binder	binding result
B1	binds
B2	binds
B3	binds
B4	binds

These binders were tested against E protein of DENV-2 Indonesian isolate (cosmopolitan genotype, Surabaya) (Dengue virus type 2, cosmopolitan …, UniProt P14340, strain) (assay: cell-based or functional assay).

Binder	NT50, neutralization of DENV-2 (Indonesian isolate), Vero cells
B1	0.05 µg/mL
B2	0.69 µg/mL
B3	0.12 µg/mL
B4	0.02 µg/mL
